Assay results from publication PMC2132664 (The Journal of Cell Biology, 1998).

Target: the molecule itself
Test: single-spot fluorescence intensity

Row | Protein | stoichiometry N
1 | DEL K560–GFP (aa 341–370 of the neck coiled coil deleted) (domain or fragment, human, UniProt P33176 1-560, looked up) MADLAECNIKVMCRFRPLNESEVNRGDKYIAKFQGEDTVVIASKPYAFDRVFQSSTSQEQVYNDCAKKIVKDVLEGYNGTIFAYGQTSSGKTHTMEGKLHDPEGMGIIPRIVQDIFNYIYSMDENLEFHIKVSYFEIYLDKIRDLLDVSKTNLSVHEDKNRVPYVKGCTERFVCSPDEVMDTIDEGKSNRHVAVTNMNEHSSRSHSIFLINVKQENTQTEQKLSGKLYLVDLAGSEKVSKTGAEGAVLDEAKNINKSLSALGNVISALAEGSTYVPYRDSKMTRILQDSLGGNCRTTIVICCSPSSYNESETKSTLLFGQRAKTIKNTVCVNVELTAEQWGETVPIDEQFDKEKANLEAFTVDKDITLTNDKPATAIGVIGNFTDAERRKCEEEIAKLYKQLDDKDEEINQQSQLVEKLKTQMLDQEELLASTRRDQDNMQAELNRLQAENDASKEEVKEVLQALEELAVNYDQKSQEVEDKTKEYELLSDELNQKSATLASIDAELQKLKEMTNHQKKRAAEMMASLLK | 2
2 | STABLE COIL K560–GFP (aa 343–370 replaced by four repeats of EIEALKA) (domain or fragment, human) MADLAECNIKVMCRFRPLNESEVNRGDKYIAKFQGEDTVVIASKPYAFDRVFQSSTSQEQVYNDCAKKIVKDVLEGYNGTIFAYGQTSSGKTHTMEGKLHDPEGMGIIPRIVQDIFNYIYSMDENLEFHIKVSYFEIYLDKIRDLLDVSKTNLSVHEDKNRVPYVKGCTERFVCSPDEVMDTIDEGKSNRHVAVTNMNEHSSRSHSIFLINVKQENTQTEQKLSGKLYLVDLAGSEKVSKTGAEGAVLDEAKNINKSLSALGNVISALAEGSTYVPYRDSKMTRILQDSLGGNCRTTIVICCSPSSYNESETKSTLLFGQRAKTIKNTVCVNVELTAEQWKKEIEALKAEIEALKAEIEALKAEIEALKAGETVPIDEQFDKEKANLEAFTVDKDITLTNDKPATAIGVIGNFTDAERRKCEEEIAKLYKQLDDKDEEINQQSQLVEKLKTQMLDQEELLASTRRDQDNMQAELNRLQAENDASKEEVKEVLQALEELAVNYDQKSQEVEDKTKEYELLSDELNQKSATLASIDAELQKLKEMTNHQKKRAAEMMASLLK | 2
